# Measurements: patent publication US20260250651, “CAS12 PROTEINS AND USES THEREOF” (GUANGZHOU REFORGENE MEDICINE CO., LTD., published 2026)
# Substitutions are numbered along the chain they refer to.
# B1: gRNA-HBG ; HBG target (ssRNA ; dsDNA)
# RNA: AGAGAAUGUGUGCAUAGUCACACACAAGGCAAACUUGACCAAU
# DNA 1: ACAAGGCAAACTTGACCAAT
# DNA 2: ATTGGTCAAGTTTGCCTTGT
# B2: gRNA-TTR ; TTR target (ssRNA ; dsDNA)
# RNA: AGAGAAUGUGUGCAUAGUCACACCAGUAAGAUUUGGUGUCUAU
# DNA 1: CAGTAAGATTTGGTGTCTAT
# DNA 2: ATAGACACCAAATCTTACTG
# Assays:
# [1] = target: T1, Cas12i-69 (N295R,N260R,G705R); assay: cell_activity; 293T indels; editing >3%
# T1 chain: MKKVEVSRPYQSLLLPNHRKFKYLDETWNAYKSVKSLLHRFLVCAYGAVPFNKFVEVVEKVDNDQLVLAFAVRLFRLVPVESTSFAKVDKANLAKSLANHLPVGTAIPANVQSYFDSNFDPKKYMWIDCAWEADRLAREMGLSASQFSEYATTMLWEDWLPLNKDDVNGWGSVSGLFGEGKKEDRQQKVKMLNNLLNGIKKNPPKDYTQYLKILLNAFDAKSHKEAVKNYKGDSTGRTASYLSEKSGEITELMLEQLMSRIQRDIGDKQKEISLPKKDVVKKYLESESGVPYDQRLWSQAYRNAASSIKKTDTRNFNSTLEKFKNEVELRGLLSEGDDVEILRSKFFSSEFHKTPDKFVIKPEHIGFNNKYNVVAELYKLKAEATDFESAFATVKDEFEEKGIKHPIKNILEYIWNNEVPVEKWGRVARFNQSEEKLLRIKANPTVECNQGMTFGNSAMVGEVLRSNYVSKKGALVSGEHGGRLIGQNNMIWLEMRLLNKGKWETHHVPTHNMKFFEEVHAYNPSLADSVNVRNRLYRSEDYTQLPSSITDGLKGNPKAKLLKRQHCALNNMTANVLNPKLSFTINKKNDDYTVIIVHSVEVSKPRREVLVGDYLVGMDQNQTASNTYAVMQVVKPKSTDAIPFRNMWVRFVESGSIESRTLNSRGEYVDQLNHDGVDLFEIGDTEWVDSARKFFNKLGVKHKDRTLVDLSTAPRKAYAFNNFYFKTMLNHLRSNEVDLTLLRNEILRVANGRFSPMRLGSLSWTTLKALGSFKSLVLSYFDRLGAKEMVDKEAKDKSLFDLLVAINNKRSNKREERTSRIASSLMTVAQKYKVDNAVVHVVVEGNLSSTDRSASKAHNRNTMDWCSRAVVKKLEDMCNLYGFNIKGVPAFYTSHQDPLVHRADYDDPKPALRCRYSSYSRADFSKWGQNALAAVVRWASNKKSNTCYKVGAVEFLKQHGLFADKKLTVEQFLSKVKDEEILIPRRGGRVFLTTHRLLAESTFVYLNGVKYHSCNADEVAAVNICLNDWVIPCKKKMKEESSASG
# Experimental: (§1) Plating: The 293T cell line was plated when the confluence reached 70-80%, and the number of cells seeded in a 24-well plate was 5*10\hat{ }5 cells/well.
# (§2) Transfection: After 12-14 hours of plating, transfection was performed. 100 μl of Opti-MEM, 1.5 μl of PEI (Yisheng Bio, Polyethylenimine Linear (PEI) MW25000), 250 ng of the mutant clone plasmid from Example 2, and 250 ng of gRNA plasmid for targeting endogenous genes were added to each well of a 24-well plate. The mixture was incubated at room temperature for 20 minutes and then added to 293T cells for transfection. After transfection overnight, the medium was replaced with fresh medium and cultured for the next period.
# (§3) DNA extraction, PCR amplification, and Sanger sequencing: After culturing for 72 hours, cells were washed with PBS, and then 100 μl of cell lysis buffer (Viagen, DirectPCR® Lysis Reagent (Cell)) was added for lysis to obtain a lysate containing genomic DNA. The genomic DNA was amplified in the region near the target sequence, and the PCR product was sent to a sequencing company for Sanger sequencing.
# [2] = target: T2, Cas12i-135 (N295R,N260R,G705R,L475R); assay: cell_activity; 293T indels
# T2 chain: T1 chain with L475R
# Experimental: as §1, §2, §3
binder,measurement,setting,value
B1,relative indel editing efficiency,[1],1.27 fold of wild type
B2,relative indel editing efficiency,[2],1.73 fold of Cas12i-69
